Assay results taken from US20210087298A1.

Key:
HER2 [1] = molecular target: HER2 (UniProt P04626); assay: apparent Kd, flow cytometry on SKBr3 cells
HER2 [2] = molecular target: HER2 (UniProt P04626); assay: apparent Kd, flow cytometry on SKOV3 cells
HER2 [3] = molecular target: HER2 (UniProt P04626); assay: apparent Kd, flow cytometry on JIMT-1 cells
HER2 [4] = molecular target: HER2 (UniProt P04626); assay: apparent Kd, flow cytometry on SKOV3 cells (n = 2)

Kd (HER2 [1])	Kd (HER2 [2])	Kd (HER2 [3])	Kd (HER2 [4])	Substance
1.8 nM				trast T191N-MB488 (antibody)
2.3 nM	3.1 nM	3.2 nM		trast K129N-MB488 (antibody)
	3.4 nM		3.5 nM	trast L189N-MB488: trastuzumab L189N mutant conjugated through Neu5NAz on Fd glycans (antibody)
2.6 nM	3.3 nM	3.9 nM	3.5 nM	trast A158N-MB488: trastuzumab A158N mutant conjugated through Neu5NAz on Fd glycans (antibody)
